Source: the supplement of paper PMC6757056
± gives the standard deviation of the averaged measurements.

B1: library; a variant is named by its letters at N, in order (parent)
chain: GCUGUCACCGGUGCUUGGUACGUUAUAUUCAGCCGGUCUGAUGAGUCUNNNNNNAGACGAAACAGC

How the values were obtained:
[1] = variants of: B1; experiment: FACS-Seq fitted mean relative fluorescence mCherry/BFP without ligand (log10 relative fluorescence); HEK293T overexpressing SLC46A1; higher = higher reporter protein expression; details: without (6R,S)-folinic acid; ligand present: no
Summary of the method: (§1)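 Cells were sorted into 6 bins on the mCherry/BFP ratio after 48 h with or without ligand. These were enriched HEK293T cells transduced by lentivirus with a ribozyme-switch mCherry reporter plus an EF1α-BFP marker. Fluorescence was obtained by fitting a normal distribution to sequencing-derived bin counts. Counts came from MiSeq sequencing of PCR-amplified, barcoded genomic DNA, binned by log10(mCherry/BFP), with means scaled to five spiked-in control ribozymes.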

[2] = variants of: B1; experiment: normalized RNA/DNA level without ligand (relative to sTRSVctl = 100) (log10 (% of sTRSVctl)); HEK293T overexpressing SLC46A1; higher = less ribozyme self-cleavage, higher mRNA level; details: without (6R,S)-folinic acid; ligand present: no
Summary of the method: (§2)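 HEK293T cells received ligand, where used, 1 h before being transfected with 4 µg per 6-well well of library plasmids encoding reporter-linked ribozyme switches. After 72 h, RNA was extracted with EDTA and sequenced. RNA level was derived from RNA reads per DNA read, normalized to a spiked-in non-cleaving sequence or the top sequences, then scaled and log-transformed. Values were ×100 then log10, the top set was 25 sequences, and the minimum was 100 DNA reads.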

[3] = variants of: B1; experiment: FACS-Seq fitted mean relative fluorescence mCherry/BFP with ligand (log10 relative fluorescence); HEK293T overexpressing SLC46A1; ligand concentration (+) FACS-Seq: 6 mM; higher = higher reporter protein expression; details: with (6R,S)-folinic acid; ligand present: yes
Summary of the method: as §1

[4] = variants of: B1; experiment: normalized RNA/DNA level with ligand (relative to sTRSVctl = 100) (log10 (% of sTRSVctl)); HEK293T overexpressing SLC46A1; ligand concentration (+) RNA-Seq: 6 mM; higher = less ribozyme self-cleavage, higher mRNA level; details: with (6R,S)-folinic acid; ligand present: yes
Summary of the method: as §2

Variant	FACS-Seq fitted mean (log10) [1]	normalized RNA/DNA level without ligand (log10) [2]	FACS-Seq fitted mean (log10) [3]	normalized RNA/DNA level with ligand (log10) [4]
UUUGCA	0.00421 ± 0.011	1.981 ± 0.0053	-0.275 ± 0.0052	1.99 ± 0.032
AUUAGA	0.0629 ± 0.005	1.965 ± 0.004	-0.224 ± 0.063	2.01 ± 0.033
AUUAGG	0.125 ± 0.18	1.9 ± 0.023	0.123 ± 0.074	2.01 ± 0.028
CUUGAG	0.41 ± 0.091	1.9276 ± 0.0002	0.534 ± 0.33	2.005 ± 0.0023
CUUGAU	0.145 ± 0.1	1.97 ± 0.018	0.602 ± 0.33	2.008 ± 0.018
CUUAUU	0.473 ± 0.12	1.985 ± 0.0074	0.678 ± 0.072	2.01 ± 0.024
UAAGUA	–	1.896 ± 0.0077	–	1.98 ± 0.034
GUUAGG	0.206 ± 0.031	1.938 ± 0.0023	0.301 ± 0.51	2 ± 0.031
CUUUUC	0.721 ± 0.2	2.06 ± 0.023	0.481 ± 0.091	2.02 ± 0.036
CUUUUU	0.61 ± 0.16	1.991 ± 0.013	0.733 ± 0.016	2.021 ± 0.018
UAAGGC	–	1.98 ± 0.023	–	2.01 ± 0.043
UAAGGU	–	1.844 ± 0.0031	–	1.967 ± 0.018
CAAUCA	–	2.001 ± 0.0045	–	2.02 ± 0.033
CAAUCG	–	2.024 ± 0.012	–	2.02 ± 0.0061
CAAUCC	–	2.023 ± 0.0031	–	2.02 ± 0.049
CAAUCU	–	2.045 ± 0.0088	–	2.05 ± 0.028
UAAGAU	–	1.9446 ± 0.0012	–	2.01 ± 0.024
UAAGAC	–	1.984 ± 0.00031	–	2.01 ± 0.034
CUUGGG	0.49 ± 0.05	1.9697 ± 0.0016	0.119 ± 0.14	2.04 ± 0.03
CUUGGA	0.658 ± 0.053	2.001 ± 0.019	0.547 ± 0.15	1.99 ± 0.025
CUUGGC	0.556 ± 0.084	2.062 ± 0.0022	0.651 ± 0.35	2.04 ± 0.037
GAAGGG	–	1.87 ± 0.00046	–	2.03 ± 0.043

Variant	FACS-Seq fitted mean (log10) [1]	normalized RNA/DNA level without ligand (log10) [2]	FACS-Seq fitted mean (log10) [3]	normalized RNA/DNA level with ligand (log10) [4]
GAAGGU	–	1.974 ± 0.0097	–	2.02 ± 0.043
GAAGGA	–	1.952 ± 0.0097	–	2.009 ± 0.014
CAAAAG	–	1.903 ± 0.0085	–	1.945 ± 0.015
CAAAAA	–	1.962 ± 0.007	–	1.96 ± 0.025
GAACGU	–	1.988 ± 0.0095	–	2 ± 0.027
UAACUC	–	2.046 ± 0.0055	–	2.03 ± 0.045
UUUGAU	0.135 ± 0.022	1.9541 ± 0.0016	0.206 ± 0.34	1.99 ± 0.065
UUUGAG	-0.104 ± 0.12	1.735 ± 0.0097	0.41 ± 0.25	1.98 ± 0.033
UUUGAA	0.0652 ± 0.029	1.918 ± 0.0086	0.135 ± 0.075	1.98 ± 0.042
GUUUAG	0.516 ± 0.048	1.965 ± 0.0083	0.495 ± 0.068	2.02 ± 0.033
AUUAUU	0.191 ± 0.11	2.02 ± 0.023	0.497 ± 0.056	2.03 ± 0.024
UAAAUC	–	2.06 ± 0.0029	–	2.06 ± 0.045
UAAAUU	–	1.984 ± 0.011	–	2.017 ± 0.02
UAAAUA	–	1.952 ± 0.014	–	2 ± 0.034
GUUGAA	0.184 ± 0.013	1.95 ± 0.01	0.741 ± 0.0086	2.01 ± 0.035
GUUGAG	0.527 ± 0.087	1.89 ± 0.02	0.542 ± 0.36	2.028 ± 0.013
GUUGAC	0.276 ± 0.11	1.949 ± 0.018	0.451 ± 0.087	2.01 ± 0.028
CAACCU	–	2.051 ± 0.012	–	2.05 ± 0.035
CAACCG	–	2.0386 ± 0.00089	–	2.04 ± 0.02
CAACCA	–	2.032 ± 0.015	–	2.019 ± 0.013
CAACCC	–	2.073 ± 0.0092	–	2.03 ± 0.079
UUUCAG	0.263 ± 0.0041	1.916 ± 0.013	-0.0672 ± 0.0029	2.011 ± 0.02
